The results in this text go back to patent publication US20220380455A1 (Alector, published 2022).

The target in assay [1] is T1, MS4A6A ECL2 peptide (human).
T1 construct: also called MS4A6A ECL-2 peptides
T1 peptide: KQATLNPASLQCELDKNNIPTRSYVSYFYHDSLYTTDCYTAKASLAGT
As to the kind of experiment: array SPR (Carterra MX-96), antibody captured on anti-mouse IgG-Fc, ECL2 peptide injected. Here is the method: (§1) Binding kinetic characterization of the purified antibodies to MS4A6A ECL1 and ECL2 peptides was performed by Carterra (South San Francisco, Calif.) using a proprietary array Surface Plasmon Resonance (SPR) instrument (MX-96) as follows. Antibodies were printed onto a CMD5OOD chip (Xantec #SPMX CMD500D lot #SC CMD500D0117.a Exp. 31.12.18) using the Continuous Flow Microspotter (CFM). First, the chip was activated with 100 mM MES pH 5.5, 100 μL EDC (133 mM final), 100 μL of S-NHS (33.3 mM final), for 7 minutes. A lawn of anti-mouse IgG-Fc (Jackson ImmunoResearch CAT #115-005-071 lot#130410) was injected for 15 minutes to establish a surface density of 10000-12000 RU, after which the chip surface was deactivated with 1 M ethanolamine at pH 8.5 for 10 minutes. Anti-MS4A6A antibodies in question, in the form of hybridoma supernatants diluted 2:1 with HBS-EP+buffer (Teknova CAT #H8022), were then printed as duplicates with a 20 minute and a 5 minutes print from the same sample solution. Control antibodies were diluted to 20 μ/ml for printing.
(§2) To perform kinetic analysis, the peptides in question were prepared in HBS-EP+buffer with lmg/ml BSA at final assay concentrations of 2000 nM, 400 nM, 80 nM, 16 nmM, and 3.2 nM. These were then injected on the chip for five minutes, followed by a seven-minute dissociation period at 8 uL per second in a non-regenerative kinetic series. Duplicate measurements for each anti-MS4A6A antibody were taken to ensure reproducibility.
(§3) Kₐ (association rate constant; Kₒₙ), Kd (dissociation rate constant; Koff) and KD (equilibrium constant) to MS4A6A ECL-2 peptides were calculated for each of the 23 anti-MS4A6A antibodies tested, the results of which are shown below in Table 5 (clones that bound too weakly to determine these values are denoted as N/A in Table 5).

In assay [2] the target is T2, cynomolgus (cyno) MS4A6A (cynomolgus, UniProt Q9H2W1 1-246 (human entry)).
T2 construct: Full-length protein expressed in transfected HEK293, U937 or K562 cells (flow cytometry)
T2 chain: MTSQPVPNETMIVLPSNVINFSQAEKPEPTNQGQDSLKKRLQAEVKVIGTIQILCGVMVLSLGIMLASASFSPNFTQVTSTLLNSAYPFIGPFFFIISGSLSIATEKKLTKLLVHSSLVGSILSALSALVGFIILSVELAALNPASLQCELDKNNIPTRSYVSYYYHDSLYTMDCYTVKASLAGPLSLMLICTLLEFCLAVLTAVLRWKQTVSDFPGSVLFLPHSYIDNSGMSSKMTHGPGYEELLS
As to the kind of experiment: flow cytometry, hybridoma supernatant, HEK293 transfected with cyno MS4A6A over parental HEK293; Screen 1. Here is the method: (§4) Positive clones were expanded and then rescreened for specificity against HEK293 cells overexpressing cyno MS4A6A and parental HEK293 cells. Briefly, previously prepared, cryopreserved transiently-transfected cells were labeled with LIVE/DEAD Fixable Aqua Dead Cell Stain Kit (ThermoFisher Scientific L34957) on ice for 30 minutes. After a wash with PBS, 2×10⁵ cells were aliquoted per well in 96-well round bottom plates and incubated with 50 μl of culture supernatant on ice for 30 mins. […] Following this secondary incubation, the cells were again washed twice with ice-cold FACS buffer and resuspended in a final volume of 200 μl of FACS buffer. Analysis was performed on a FACS Canto system (BD Biosciences), with sort gates drawn to exclude dead (Aqua-positive) cells. […] The screen was repeated twice, and the numbers reported here represent the ratio of mean fluorescence level in transfected cells over parental cells.
On the technique in general: In flow cytometry, cells or beads pass a laser one at a time.

In assay [3] the target is T3, MS4A6A ECL1 peptide (human).
T3 construct: the description elsewhere gives ECL1 as 68-84; Human and cyno ECL1 are said to be identical
T3 peptide: SASFSPNFTQVTSTLLNS
As to the kind of experiment: array SPR (Carterra MX-96), antibody captured, peptide injected. Here is the method: as §1, §2, §3

The target in assay [4] is T2, cynomolgus (cyno) MS4A6A. The assay can be described thus: flow cytometry, hybridoma supernatant, HEK293 transfected with cyno MS4A6A over parental HEK293; Screen 2. Here is the method: as §4
Assay [5] deals with T4, BSA-MS4A6A-ECL2 peptide (human, BSA-conjugated).
T4 construct: Synthetic peptide derived from ECL2, conjugated to BSA, coated on the ELISA plate; also called MS4A6A-ECL2 BSA conjugated peptide; BSA-MS4A6A-ELC2 peptide
T4 peptide: T1 peptide
The assay can be described thus: peptide ELISA, hybridoma supernatant. Here is the method: Anti-MS4A6A hybridoma supernatants were tested for binding to MS4A6A peptides derived from ECL1 (amino acid residues 68-85 of human MS4A6A of SEQ ID NO:1) and ECL2 (amino acid residues 138-185 of human MS4A6A of SEQ ID NO:1) sequences, using an enzyme-linked immunosorbent assay (ELISA). Briefly, 96-well polystyrene plates were coated with 1-10 μg/mL of synthetic free or BSA-conjugated peptides in coating buffer (0.05M carbonate buffer, pH9.6, Millipore Sigma C3041) overnight at 4° C. Coated plates were then blocked with ELISA diluent (PBS+0.5% BSA+0.05% Tween20) for 1-hour, washed 3×300 μL in PBST (PBS+0.05% Tween20, Thermo 28352), and then the antibodies were added at various dilutions (100-1000×) in ELISA diluent. After 30 mins incubation (room temperature, with shaking), the plates were washed 3×300 μl in PBST. A secondary anti-mouse HRP antibody (Jackson Immunoresearch CAT #115-035-003) was added at a 1:1000 dilution in ELISA diluent (50 μL/well) and incubated for 30 minutes at room temperature with shaking. After a final set of washes (3×300 μl in PBST), 50 μL of TMB substrate (BioFx TMBW-1000-01) was added and the reaction was then quenched after 5-10 mins with 50 μL of stop solution (BioFx BSTP-1000-01). The quenched reaction wells were detected for absorbance at […] with a BioTek Synergy Microplate Reader using GENS 2.04 software.

Assay [6] addresses T1, MS4A6A ECL2 peptide. As to the kind of experiment: array SPR (Carterra MX-96), antibody captured, peptide injected; both duplicates N/A. Here is the method: as §1, §2, §3

Several values for one entry are separate records, joined by “and”; a condition that tells them apart may be missing. Identical values can stand only once.

B1: 6A-2 (antibody, V domains shown)
VH: DVQLQESGPGLVKPSQSLSLTCSVTGYSITSGYYWNWIRQFPGNKLEWLGYITYDGDTDYNPSLKNRVSITRDTSKNQFFLNLISVTPEDTATYYCAREDSFGYWGQGTLVTVSA
VL: not shown
notes: Mouse hybridoma antibody, tested as hybridoma supernatant (mouse IgG, detected or captured via anti-mouse IgG Fc); also called anti-MS4A6A antibody 6A-2
B1: in assay [1], the Kd was 200 nM and 120 nM; the koff was 0.001 s⁻¹ and 0.00098 s⁻¹; the kon was 5300 M⁻¹ s⁻¹ and 8300 M⁻¹ s⁻¹. Further, in assay [2], the “ratio of APC MFI on MS4A6A+/HEK parental cells” value (“ratio of APC MFI” below) came out at 25.7 ratio. In addition, the binding result in assay [3] is on record as “no binding (tested: 2000 nM)”. For the same molecule, in assay [4], the “ratio of APC MFI” value was 75.5 ratio.

B2: 6A-1 (antibody, V domains shown)
VH: EVQLQQSGPELVKPGASVKISCKASGYSFTGYYMHWVKQSPEDSLEWIGAINPSTGGSTYSQKFKDKATLTVDKSSSTAYMQLKSLTSEESAVYYCTRFDGYGYWGQGTLVTVSA
VL: DIVMTQAAFSNPVTLGTSASISCRSSKSLLHSNGITYLYWYLQKPGQSLQLLIYQMSNLASGVPDRFSGSGSGTDFTLRISRVEAEDVGVYYCAQNLELPWTFGGGTKLEIK
notes: Mouse hybridoma antibody, tested as hybridoma supernatant (mouse IgG, detected or captured via anti-mouse IgG Fc); also called anti-MS4A6A antibody 6A-1
On to B2, for which the binding result is recorded as “no binding” in assay [5], “no binding (tested: 2000 nM)” in assay [3] and “no binding (tested: 2000 nM)” in assay [6]. For the same molecule, the “ratio of APC MFI” value turned out to be 7.5 ratio in assay [2] and 7.6 ratio in assay [4].

B3: 6A-3 (antibody, V domains shown)
VH: EVQLQQSGPELVKPGASVKMSCKASGYTFTDYFMKWVKQSHGKSLEWIGDINPKNGDTFYNQKFKGKATLTVDKSSSTAYMQLNSLTSEDSAVYYCARPGYFDVWGAGTTVTVSS
VL: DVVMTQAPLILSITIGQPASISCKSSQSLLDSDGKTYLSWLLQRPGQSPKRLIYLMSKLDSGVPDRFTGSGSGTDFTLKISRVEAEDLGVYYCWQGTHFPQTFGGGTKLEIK
notes: Mouse hybridoma antibody, tested as hybridoma supernatant (mouse IgG, detected or captured via anti-mouse IgG Fc); also called anti-MS4A6A antibody 6A-3
For B3, in assay [1], the Kd is 120 nM and 94 nM; the koff is 0.0006 s⁻¹ and 0.00065 s⁻¹; the kon was 4800 M⁻¹ s⁻¹ and 6800 M⁻¹ s⁻¹. Moreover, the “ratio of APC MFI” value in assay [2] amounted to 24.1 ratio. Further, the binding result in assay [3] was “no binding (tested: 2000 nM)”. Moreover, in assay [4], the “ratio of APC MFI” value turned out to be 63.7 ratio.

As a reminder, the Kd is a measure of binding affinity in units of concentration. Low readings indicate tighter binding, high ones weaker binding. A word on the koff: it is the first-order rate constant of dissociation. A lower koff goes with slow dissociation. One may read the kon as a measure of how fast the partners come together. Lower therefore signals slower complex formation.
